Source: the supplement of paper PMC9170038

System: MS2 coat protein
Assay: apparent KD of MS2 coat protein; higher = weaker reporter binding
Conditions: Eterna round: R107
Summary of the method: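 In 100 mM Tris-HCl pH 7.5 with 80 mM KCl and 4 mM MgCl2, and without or with constant ligand, SNAP-549-labelled MS2 coat protein was titrated in twofold steps from 0.7 or 1.5 nM to 3 µM. Per-step times went from 0.8–1.5 h down to 10–20 min. The RNA switches were transcribed on-chip from Illumina sequencing clusters, and apparent KD is the per-design median of normalised cluster binding-curve fits.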

[1] = input ligand: theophylline 20 uM
[2] = input ligand: theophylline 2 mM
[3] = input ligand: tryptophan 2.4 mM

Sequence	apparent KD of MS2 coat protein (input ligand: arginine 13.2 mM) [nM]	apparent KD of MS2 coat protein (input ligand: none) [nM]	apparent KD of MS2 coat protein [1] [nM]	apparent KD of MS2 coat protein [2] [nM]	apparent KD of MS2 coat protein [3] [nM]
UGUAUGUGAUUUGAUACCAGACCAGCUGGUGUUAUAUGAGGAUCACCCAUAUAGGUUUGGGUCCCUUGGCAGCAAAUCGCAUACU [SS Theo B #24 Ms14]	40.7	28.6	38.8	17.4	32.5
AAUUAUCAGUCGGCCGCCACUGACACAUGAGGAUCACCCAUGUAACAUGGGUAAAAUUAACUGAACAGGACCGGGACAAAGGCUA [JR_ExcTryptoB_Sub008]	179		671	740	
AAACGUUGCUGCGAUACCAGACAUGAGGAUCACCCAUGUACCAAGAAAACGUACAUAAAUGUCCCUUGGCAGCGCAGCAACGAAA [MAT - Exclusion Theophlline B - Mod of Eli - D28]	141		511		635
UCACGUGGGAAUGAUACCAGCCACAUGAGGAUCACCCAUGUGCAUGGUGUGAGCUUCACGGGCCCUUGGCAGCAUUUCAAGUCGC [Agelaus]	39.9		93.1		37.9
UUAUUUAUAUUAGAUACCAGUUUAAUGGCCGCAAAUCCUGACAUGAGGAUCACCCAUGUAAGCCCUUGGCAGCUGGUAUGGGUUU [XTheo B #26]	25.2		25.2		20.5
ACCGCAUCCGUAUAGGAUGCGGCCCAUGAAGGAGCGUGGGAAACCACAGGUAGGUCGCAUGACAUGAGGAUCACCCAUGUUUAUU [Matrix]	27.8	44.2	52.7	40.9	33.9
GCGACCCUGAGAUCCUGCGUAACGUGAACACGAGGACCGGUACGGCCGCCACUCGAGAGAACAUGAGGAUCACCCAUGUCUGAGC [e-trypA-0(N)]	16.2		28.4	26.4	
GCUGUAAGUGCAGAUACCAGCAGGUGAUAUUUCAUAUGACAUGAGGAUCACCCAUGUAACUGCCCUUGGCAGCUGCACUUACAGC [SSTHB #9]	172		193		523
AGACGAGAAGAGGAUUACCCAUGUACAGAAGGAGCGUCGUUGACGACAGGUAGGUCGCUGAGAACAUGAGGAUCACCCAUGUUGA [Arg A Ex t1]	29.9	42.9	53.9	39.8	36
GCAACAUGAGGAUCACCCAUGUUUACUGAAGGAGCGAGACAGAACUCAGGUAGGUCGCAGACGGCGGAAUCGCCGACGACAUGGG [Exclusion Arginine A GF24]	19.6	22.4	33.5	27.9	21.6
AAGAACAUGAGGAUCACCCAUGUGAUCGUUCGAGGACCGGUACGGCCGCCACUCGGACCUGUGUCCAGGCACGGGCCGACGCGAC [theeternabot_sameState_MS2_Trp_A_21]	74.8		118	106	
ACAUGAGGAUCACCCAUGUCACGGCACGAUACCAGCUGAUGCGGUGGCCCUUGGCAGCGUGACGUUUGGUCCCGCGGAUGACGGG [zzmullin]	36.6		74.3		53.2
ACAUGAGGAUCACCCAUGUCAUGAGGUUCACGAGGACCGGUACGGCCGCCACUCGACAUGAGGGUCACCCAUGUGAGGAACACCC [mamullun]	117		278	579	
CAAGAGUUGUACAUUGUGAGGCGUCGGGAACGAGGACCGGUACGGCCGCCACUCGAAAAUUAACAUGAGGAUCACCCAUGUACAC [theeternabot_exclusion_MS2_Trp_A_35]	36.1		72.7	82.8	
UUAAUGGAGCUUUAAUUUACGAUUUCUGAUACCAGUGUUUCAUUUCACCCUUGGCAGCAGUGACAUGAGGAUCACCCAUGUAAUA [JR_Nu_SSTheophyA_Sub022]	23.7		35.5		26.4
